Here are results for two molecules from patent US20240189392A1.

Positions of bridges follow the written chain, without caps; N, C: chain ends. Chains are numbered I, II in the order given. No end group written: not given here.

The assay has as its target human RXFP2 (human), Q8WXD0. Put plainly: cell-based or functional assay.

Sequence of human RXFP2 (human), Q8WXD0 (Q8WXD0 whole entry): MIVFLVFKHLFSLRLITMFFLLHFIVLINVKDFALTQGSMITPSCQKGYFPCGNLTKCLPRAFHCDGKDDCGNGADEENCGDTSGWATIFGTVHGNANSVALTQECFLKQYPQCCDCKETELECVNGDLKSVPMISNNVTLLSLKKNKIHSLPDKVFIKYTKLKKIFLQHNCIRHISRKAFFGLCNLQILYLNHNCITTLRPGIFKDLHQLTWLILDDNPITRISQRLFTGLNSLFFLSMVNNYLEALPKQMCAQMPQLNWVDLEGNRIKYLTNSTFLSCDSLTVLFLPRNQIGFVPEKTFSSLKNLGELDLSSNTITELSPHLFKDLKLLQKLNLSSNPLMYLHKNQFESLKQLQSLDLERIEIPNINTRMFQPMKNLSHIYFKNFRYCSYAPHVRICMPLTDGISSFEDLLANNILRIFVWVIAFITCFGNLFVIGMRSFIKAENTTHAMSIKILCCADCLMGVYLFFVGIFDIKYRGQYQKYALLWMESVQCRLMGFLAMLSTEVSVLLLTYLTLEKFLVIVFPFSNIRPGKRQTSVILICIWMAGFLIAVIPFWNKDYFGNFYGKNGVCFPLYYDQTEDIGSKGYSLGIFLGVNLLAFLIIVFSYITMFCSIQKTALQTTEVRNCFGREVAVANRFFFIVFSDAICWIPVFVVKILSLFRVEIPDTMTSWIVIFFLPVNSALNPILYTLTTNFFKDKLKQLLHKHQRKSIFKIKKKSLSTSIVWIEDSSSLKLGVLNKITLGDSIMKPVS

B1: wild-type relaxin (human relaxin 2) (ligand)
chain 1: QLYSALANKCCHVGCTKRSLARFC
chain 2: DSWMEEVIKLCGRELVRAQIAICGMSTWS
modifications: disulfide I:10-I:15, I:11-II:11, I:24-II:23
Regarding B1, the fold less potent than INSL3, cAMP assay, human RXFP2/CHO-K1 cells is 10 fold.

B2: RLX-A-AQ1-20KPEG (ligand)
chain 1: XLYSALANKCCHVGCTKRSLARFC
chain 2: ASWMEEVIKLCGRELVRAQIAICGMSTWS
modifications: here or on the partner: pACF (para-acetylphenylalanine) at position 1 of the A chain, linked to a 20 kDA PEG via an oxime linkage
On to B2, for which the Maximal cAMP stimulation by RLX-A-AQ1-20KPEG compared to WT-RLX (percent difference), AVG, hRXFP2 is 99%; the Potency Ratio (RLX-A-AQ1-20KPEG/WT-RLX), cAMP assay, human RXFP2/CHO-K1 cells came out at 32 fold; the RLX-A-AQ1-20KPEG Potency Ratio (hRXFP 1-1.0), cAMP assay is 54; the cAMP Assay EC50 (nM), human RXFP2/CHO-K1 cells was determined as 174 nM.
